Laboratory results as given in article PMC4070910, “Cathepsin S Signals via PAR2 and Generates a Novel Tethered Ligand Receptor Agonist” (PLoS ONE, 2014).
“Also recorded” adds a separate entry of the source.

Columns and labels:
[1] = test system: PAR2M2 (glycine40 to alanine); experiment: Calcium imaging in HeLa cells transfected with PAR2M2; type: cell-based, human; conditions: cathepsin S 2 µM, KVDGTS 100 µM
Experimental: (§1) Human PAR2 cDNA was cloned as an Xho I-Hind III fragment (1206 bp) into pcDNA3.1(−). 10 µg of DNA were diluted into 0.5 ml of DMEM and mixed with 0.5 ml of DMEM containing 10 µl of Lipofectamine 2000 transfection reagent and incubated at room temperature for 20 minutes. HeLa cells were grown to confluence, trypsinized and 1×10^6 cells were pelleted in a 15 ml tube by centrifugation at 1000 rpm for 5 minutes. The DMEM-Lipofectamine 2000-DNA mixture (1 ml) was added to the cell pellet, resuspended gently and incubated at room temperature for 20 minutes. Four ml of complete DMEM with 10% FBS were added to the tube, mixed by inverting the tube several times, plated into a 96-well glass bottom plate at 20,000 cells/well, and placed in a 37°C CO2 incubator. HeLa cells transfected with vector alone or salmon sperm DNA (shown in the figures) were plated as a control. The medium was aspirated two days after transfection. Fura-2 was used as a ratiometric calcium-sensitive indicator as follows. […]
(§2) Imaging was performed using a Zeiss Axiovert 200 M microscope platform equipped with a flipping filter wheel for ratiometric imaging. […] The software later analyzed all images taken during each excitation period. Typically, ratiometric changes were measured in 10–20 cells in each image. An average of the fluorescence of the cells in each image was calculated and plotted against time in seconds. […]

[2] = test system: luciferase-PAR2M1 (leucine38 to alanine); experiment: Gaussia luciferase release, luciferase-PAR2M1; type: cell-based, human; conditions: cathepsin S 2 µM, 10 minutes, room temperature, triplicate
Description: (§3) Gaussia luciferase cDNA was cloned, without its termination codon, into pcDNA3.1(−) as an Xho I-EcoR I fragment. Human PAR2 cDNA and its mutants, M1, M2 and M3, were generated using PCR primers designed to start after the signal sequence and end with a termination codon: […] and […] . The PCR amplified cDNAs were cloned into EcoR I and Hind III sites C-terminal to Gaussia luciferase cDNA. The resulting plasmids were called pGLPAR2, pGLPAR2M1, pGLPAR2M2 and pGLPAR2M3.
(§4) The QuickChange site-directed mutagenesis procedure (Agilent Technologies, Santa Clara, CA) was used to generate PAR2 N-terminal mutants. PAR2M1, with a single amino acid change, was created by substituting the leucine^38 codon, CTT, with alanine, GCT, using the primers: PAR2M1F, […], and PAR2M1R, […]. […]
(§5) The plasmid DNAs pGLPAR2, pGLPAR2M1, pGLPAR2M2 and pGLPAR2M3 (10 µg of each) were transfected into 2×10^6 HeLa cells as described above and plated into 10 cm dishes. […] Cells were scraped in order to eliminate the use of trypsin, which could activate PARs, and allowed for the luminescence assay to be performed in a small volume. […] Luminescence assays were performed in triplicate on 50 µl of the supernatants according to the instructions of the manufacturer (New England Biolabs, Ipswich, MA).

[3] = test system: PAR2M3 (leucine38 and glycine40 to alanines); experiment: Calcium imaging in HeLa cells transfected with PAR2M3; type: cell-based, human; conditions: cathepsin S 2 µM, KVDGTS 100 µM
Experimental: as §1, §2

PAR2 = conditions: proteases expressed in the skin; cited from earlier work
Description: PAR2 signaling has been implicated in the development of inflammatory and bowel diseases, asthma, itch and pain. The receptor is expressed on many types of cells including keratinocytes, sensory neurons, fibroblasts, endothelial cells, and inflammatory cells, [3]. Consistent with this broad expression, PAR2 is involved in numerous physiologic and pathophysiologic processes in response to both endogenous and exogenous proteases.

[4] = test system: luciferase-PAR2 (native PAR2); experiment: Gaussia luciferase release, luciferase-PAR2; type: cell-based, human; conditions: cathepsin S 2 µM, 10 minutes, room temperature, triplicate
Description: as §3
The plasmid DNAs pGLPAR2, pGLPAR2M1, pGLPAR2M2 and pGLPAR2M3 (10 µg of each) were transfected into 2×10^6 HeLa cells as described above and plated into 10 cm dishes. HeLa cells transfected with salmon sperm were used as controls. Forty-eight hours after transfection, the cells were washed twice with PBS, scraped and pelleted. Cells were scraped in order to eliminate the use of trypsin, which could activate PARs, and allowed for the luminescence assay to be performed in a small volume. Pelleted cells were resuspended into 200 µl PBS, and 100 µl of each was incubated with cathepsin S at a final concentration 2 µM for 10 minutes at room temperature. Untreated cells were processed by the same methods for a negative control. […] Luminescence assays were performed in triplicate on 50 µl of the supernatants according to the instructions of the manufacturer (New England Biolabs, Ipswich, MA).

human PAR2 = experiment: Fura-2 calcium imaging in HeLa cells transfected with PAR2 cDNA; type: cell-based
Experimental: Human PAR2 cDNA was cloned as an Xho I-Hind III fragment (1206 bp) into pcDNA3.1(−). 10 µg of DNA were diluted into 0.5 ml of DMEM and mixed with 0.5 ml of DMEM containing 10 µl of Lipofectamine 2000 transfection reagent and incubated at room temperature for 20 minutes. HeLa cells were grown to confluence, trypsinized and 1×10^6 cells were pelleted in a 15 ml tube by centrifugation at 1000 rpm for 5 minutes. The DMEM-Lipofectamine 2000-DNA mixture (1 ml) was added to the cell pellet, resuspended gently and incubated at room temperature for 20 minutes. Four ml of complete DMEM with 10% FBS were added to the tube, mixed by inverting the tube several times, plated into a 96-well glass bottom plate at 20,000 cells/well, and placed in a 37°C CO2 incubator. HeLa cells transfected with vector alone or salmon sperm DNA (shown in the figures) were plated as a control. The medium was aspirated two days after transfection. Fura-2 was used as a ratiometric calcium-sensitive indicator as follows. 100 µl of complete DMEM containing 2 µM of Fura-2 were added to each well and left at room temperature in the dark for 1 hr. Following loading with Fura-2, the medium was aspirated and replaced with 90 µl of HEPES-buffered saline (20 mM HEPES, 115 mM NaCl, 5.4 mM KCl, 2 mM CaCl2, 0.8 mM MgCl2, 13.8 mM glucose, pH 7.4).
Imaging was performed using a Zeiss Axiovert 200 M microscope platform equipped with a flipping filter wheel for ratiometric imaging. Axiovision software, version 4.6 was used for image analysis of the cells which were excited at 340 nm and 380 nm. Ten µl of peptide agonist were added at 20 seconds after the start of the excitation procedure. Images were taken every 5 seconds, including at zero time, during a 3-minute period or longer if required. The software later analyzed all images taken during each excitation period. Typically, ratiometric changes were measured in 10–20 cells in each image. An average of the fluorescence of the cells in each image was calculated and plotted against time in seconds.
HeLa cells transfected with PAR2 cDNA were subjected to ratiometric imaging as described above with PAR2 peptides, SLIGRL, KVDGTS, and SLIGKVDGTS in addition to the reverse peptides LRGILS and STGDVK at concentrations from 1 nM - 1 mM. Each of the concentration-dependent readings was performed in triplicate. Maximum intensities at each of the dilutions were calculated and plotted against concentration using GraphPad/PRISM software version 6.0 (Irvine, CA). Error bars represent +/−SEM.

[5] = test system: HeLa cells transfected with salmon sperm DNA; experiment: Fura-2 calcium imaging in HeLa cells transfected with salmon sperm DNA (control); type: cell-based; conditions: HeLa cells transfected with salmon sperm DNA alone
Experimental: as §1
Imaging was performed using a Zeiss Axiovert 200 M microscope platform equipped with a flipping filter wheel for ratiometric imaging. […] The software later analyzed all images taken during each excitation period. Typically, ratiometric changes were measured in 10–20 cells in each image. An average of the fluorescence of the cells in each image was calculated and plotted against time in seconds.

[6] = test system: luciferase-PAR2M3 (leucine38 and glycine40 to alanines); experiment: Gaussia luciferase release, luciferase-PAR2M3; type: cell-based, human; conditions: cathepsin S 2 µM, 10 minutes, room temperature, triplicate
Description: as §3, §4, §5

[7] = test system: luciferase-PAR2M2 (glycine40 to alanine); experiment: Gaussia luciferase release, luciferase-PAR2M2; type: cell-based, human; conditions: cathepsin S 2 µM, 10 minutes, room temperature, triplicate
Description: as §3, §4, §5

B1: cathepsin S: Recombinant human cathepsin S, cysteine protease, expressed in E.coli, refolded and activated (protein, UniProt P25774 115-331, looked up)
Cathepsin S: LPDSVDWREKGCVTEVKYQGSCGACWAFSAVGALEAQLKLKTGKLVSLSAQNLVDCSTEKYGNKGCNGGFMTTAFQYIIDNKGIDSDASYPYKAMDQKCQYDSKYRAATCSKYTELPYGREDVLKEAVANKGPVSVGVDARHPSFFLYRSGVYYEPSCTQNVNHGVLVVGYGDLNGKEYWLVKNSWGHNFGEEGYIRMARNKGNHCGIASFPSYPEI
- calcium response on PAR2M2 (in words) [1]: did not induce calcium responses; also recorded: not PAR2M2 or PAR2M3
- receptor cleavage, luciferase luminescence (in words) [2]: cleaved the native and PAR2M1 receptors
- calcium response on PAR2M3 (in words) [3]: did not induce calcium responses; also recorded: not PAR2M2 or PAR2M3
- PAR2 activation (in words) (PAR2): activated
- receptor cleavage, luciferase luminescence (in words) [4]: cleaved the native and PAR2M1 receptors
- effect as first agent on calcium response to second agent (in words) (human PAR2; PAR2-transfected HeLa, KVDGTS 100 µM, cathepsin S 2 µM, papain 2 µM, trypsin 10 nM, second agent after up to 60 minutes, room temperature): failed to induce a calcium response at any time up to 60 minutes
- calcium response to the substance as second agent after KVDGTS (in words) (human PAR2; PAR2-transfected HeLa, second agent after 2, 3, 5, 10, 30 and 60 minutes (cathepsin S), papain 2 µM, trypsin 10 nM, room temperature): present but reduced
- calcium response (in words) (human PAR2; single-cell imaging, KVDGTS 100 µM, SLIGRL 10 µM, IGKVDG 100 µM, cathepsin S 2 µM, room temperature): able to stimulate native PAR2 and PAR2M1
- concentration at which active/effective (human PAR2; summary of these studies (discussion)): 1 to 2 µM
- calcium response in cells without PAR2 (in words) [5]: Neither cathepsin S nor any of the peptides induced calcium responses
- receptor cleavage, luciferase luminescence (in words) [6]: did not cleave PAR2M2 or PAR2M3
- receptor cleavage, luciferase luminescence (in words) [7]: did not cleave PAR2M2 or PAR2M3
